Laboratory results reported in paper PMC8440562, “MAD2L2 dimerization and TRIP13 control shieldin activity in DNA repair” (Nature Communications, 2021).

Legend:
MAD2L2^1xMut (E. coli) = target: T1, MAD2L2^1xMut (E. coli) (human, UniProt Q9UI95 1-211, R124A); experiment: pull-down; 0.25 uM MBP-SHLD3^28-83 pre-adsorbed on amylose beads, eightfold molar excess of MAD2L2 variant, time course at 4 C in buffer B (10 mM HEPES pH 7.5, 0.15 M NaCl, 5% glycerol, 0.5 mM TCEP); Coomassie SDS-PAGE; conditions: both partners purified
T1 construct: MAD2L2 (REV7), human, with R124A; also called MAD2L2^R124A; source: E. coli Rosetta, purified (metal chelating column, PreScission cleavage, SEC); not shown: GST/hexahistidine-MBP fusion-tag, N-terminal, cleaved
T1 sequence (Q9UI95 whole entry R124A, the tested form may be a part): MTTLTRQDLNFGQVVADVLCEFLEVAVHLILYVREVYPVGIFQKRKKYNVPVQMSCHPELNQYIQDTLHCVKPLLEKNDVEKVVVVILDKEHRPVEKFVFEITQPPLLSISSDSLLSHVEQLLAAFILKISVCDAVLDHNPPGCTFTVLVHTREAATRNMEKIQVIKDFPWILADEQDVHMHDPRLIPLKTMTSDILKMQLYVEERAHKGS

MAD2L2^3xMut (E. coli) = target: T2, MAD2L2^3xMut (E. coli) (human, UniProt Q9UI95 1-211, K44A | R124A | A135D); experiment: as above; conditions: both partners purified
T2 construct: MAD2L2 (REV7), human, with K44A, R124A and A135D; also called MAD2L2^K44A/R124A/A135D; source: E. coli Rosetta, purified (metal chelating column, PreScission cleavage, SEC); not shown: GST/hexahistidine-MBP fusion-tag, N-terminal, cleaved
T2 sequence (Q9UI95 whole entry K44A/R124A/A135D, the tested form may be a part): as the sequence (Q9UI95 whole entry R124A, the tested form may be a part) above, with K44A, A135D counted along it

MAD2L2^WT (E. coli) = target: T3, MAD2L2^WT (E. coli) (human, UniProt Q9UI95 1-211); experiment: as above; conditions: both partners purified
T3 construct: MAD2L2 (REV7), human; source: E. coli Rosetta, purified (metal chelating column, PreScission cleavage, SEC); not shown: GST/hexahistidine-MBP fusion-tag, N-terminal, cleaved
T3 sequence (Q9UI95 whole entry, the tested form may be a part): as the sequence (Q9UI95 whole entry R124A, the tested form may be a part) above, with A124R counted along it

[1] = target: the molecule itself; experiment: SEC; Superdex-200 in buffer C (25 mM Tris pH 8, 0.3 M NaCl, 10% glycerol, 0.5 mM TCEP, 10 mM MgCl2) + 0.1 mM ATP; proteins incubated 2 h on ice with 2 mM ATP before the run; equimolar in Fig. 3f

B1: MBP-SHLD3^28-83 (domain or fragment, human, UniProt Q6ZNX1 28-83, looked up)
chain: QDFPTRPLSRFIPWFPYDGSKLPLRPKRSPPVISEEAAEDVKQYLTISEHDAKSHS
notes: SHLD3, human, residues 28-83; contains only the second RBM; also called SHLD3^28-83 peptide; SHLD3-fragment; source: E. coli Rosetta, purified (metal chelating column, SEC); not shown: hexahistidine-MBP, N-terminal, kept
- binding result (MAD2L2^1xMut (E. coli)): binds
- binding result (MAD2L2^3xMut (E. coli)): binds
- binding result (MAD2L2^WT (E. coli)): binds

B2: His6-EGFP-TRIP13^E253Q (enzyme, human, UniProt Q15645 1-432, looked up)
chain: MDEAVGDLKQALPCVAESPTVHVEVHQRGSSTAKKEDINLSVRKLLNRHNIVFGDYTWTEFDEPFLTRNVQSVSIIDTELKVKDSQPIDLSACTVALHIFQLNEDGPSSENLEEETENIIAANHWVLPAAEFHGLWDSLVYDVEVKSHLLDYVMTTLLFSDKNVNSNLITWNRVVLLHGPPGTGKTSLCKALAQKLTIRLSSRYRYGQLIEINSHSLFSKWFSESGKLVTKMFQKIQDLIDDKDALVFVLIDQVESLTAARNACRAGTEPSDAIRVVNAVLTQIDQIKRHSNVVILTTSNITEKIDVAFVDRADIKQYIGPPSAAAIFKIYLSCLEELMKCQIIYPRQQLLTLRELEMIGFIENNVSKLSLLLNDISRKSEGLSGRVLRKLPFLAHALYVQAPTVTIEGFLQALSLAVDKQFEERKKLAAYI
notes: TRIP13, human, with E253Q; printed mass of GFP-TRIP13 75.5 kDa; source: insect cells (Hi5, baculovirus, biGBac), purified
- stoichiometry N [1]: 6

B3: TRIP13^E253Q (48.5 kDa form, Fig. 3f) (enzyme, human, UniProt Q15645 1-432, looked up)
chain: MDEAVGDLKQALPCVAESPTVHVEVHQRGSSTAKKEDINLSVRKLLNRHNIVFGDYTWTEFDEPFLTRNVQSVSIIDTELKVKDSQPIDLSACTVALHIFQLNEDGPSSENLEEETENIIAANHWVLPAAEFHGLWDSLVYDVEVKSHLLDYVMTTLLFSDKNVNSNLITWNRVVLLHGPPGTGKTSLCKALAQKLTIRLSSRYRYGQLIEINSHSLFSKWFSESGKLVTKMFQKIQDLIDDKDALVFVLIDQVESLTAARNACRAGTEPSDAIRVVNAVLTQIDQIKRHSNVVILTTSNITEKIDVAFVDRADIKQYIGPPSAAAIFKIYLSCLEELMKCQIIYPRQQLLTLRELEMIGFIENNVSKLSLLLNDISRKSEGLSGRVLRKLPFLAHALYVQAPTVTIEGFLQALSLAVDKQFEERKKLAAYI
notes: TRIP13, human, with E253Q; printed mass 48.5 kDa (291 kDa for hexamer); The printed mass fits TRIP13 without the EGFP fusion; source: insect cells (Hi5, baculovirus, biGBac), purified
- stoichiometry N [1]: 6
